Source: the supplement of paper PMC9170038

System: MS2 coat protein
Assay: apparent KD of MS2 coat protein, switch ON state; designed switch direction (-1 OFF switch, 1 ON switch): -1; higher = weaker reporter binding
Conditions: FMN input: 0 or 200 uM; Eterna round: R93 (includes R88 designs)
Method in brief: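 For every design, apparent KD is the median of normalised binding-curve fits from its clusters. The RNA switches were transcribed on-chip from Illumina sequencing clusters and titrated with SNAP-549-labelled MS2 coat protein (twofold steps, 0.7 or 1.5 nM to 3 µM; 0.8–1.5 h to 10–20 min per step). Titrations used 100 mM Tris-HCl pH 7.5, 80 mM KCl, 4 mM MgCl2, without or with constant ligand.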

Point of comparison: “AACAGUACAGGAUAUACAUGAGGAUCACCCAUGUGAAAAUUAAGUGGGAAACCACAGUGUAGAAGGGUACUGGA [Mat - Exclusion 3 - Eli mod - D54]”, “apparent KD of MS2 coat protein” value 102 nM. Against it:
- AGUUGGCGAGGAUAUACAUGAGGAUCACCCAUGUGAAAGAAAAAAGUGAAAAAGAAAAGUAGAAGGCGCUGACA [73%, Moding Norbert Elias, 4] — 3.3-fold lower, 31.3 nM
- AGCUAGUGAGGAUAUACGAACAUGUCAAAAGACGUGAAGGGACAUGAGGAUCACCCAUGUAGAAGGCGCUAGCA [JL 74% mod] — 1.9-fold lower, 53.4 nM
- CUCAAGUAAGGAUAUUGAAGAAAAGAAGAGAAAGAAAAGAACAAGAAGGUACAUGAGGAUCACCCAUGUAAGAA [EteRNA is fun!] — 3.1-fold lower, 33.4 nM
- CUUAUGUCAGGAUAUCAGUAGUAAAAAAAUAAAAUUACUACUGAGAAGGGACAUGAGGAUCACCCAUGUCCGGG [EX4 369: Super Stable 69] — within 1.5-fold, 78.4 nM
- AAGAAGUGAGGAUAUACGCGAACAAAAAAAAAAAAGAAAGCGUAGAAGGCACAUGAGGAUCACCCAUGUCCAAA — 3.7-fold lower, 27.7 nM
- AGUGAGUGAGGAUAUUACUGAAGAAUAAAAGAAAUAACGAGUAAGAAGGCACAUGAGGAUCACCCAUGUACACA [May 62] — 4-fold lower, 25.5 nM
- CCUGUGUGAGGAUAUGGUAAAAAAAAAAAAAAAAAGCUCCUCCAGAAGGCACAUGAGGAUCACCCAUGUCGUGG [Jolly's Folly 15 - Jieux - Exclusion 4] — 5.4-fold lower, 18.9 nM
- AAACUACUAGGAUAUACAACGGUGUCCUAACUACUAAGAAAACAUGAGGAUCACCCAUGUAGAAGGAGUAGUGA [Lauslabe] — 3-fold lower, 33.6 nM
- AAAAUGUCAGGAUAUUCGGAUAGGAAAACGAAAACCUAUCCGAAGAAGGGACAUGAGGAUCACCCAUGUAAAAA [Starry Exclusion 4.2 (cataway round 1 mod)] — within 1.5-fold, 81.4 nM
- GAAAAGUCAGGAUAUGCAGACAAAGCAAAAAAGCAAUGUCUGCAGAAGGGACAUGAGGAUCACCCAUGUAAAAA [Mat - Exclusion 4 - Mayanna - D115] — 2-fold lower, 51.4 nM
- AAUAAGUGAGGAUAUGGAAAUAGUAGAUAAGAUACCCUAAACCAGAAGGCACAUGAGGAUCACCCAUGUAAAUA [JR_Exc004_Sub004] — 3.1-fold lower, 32.7 nM
- AGGUGACAUGAGGAUCACCCAUGUCAGGAUAUAUACACCACCGGCGUGAAGCCGGCGGAUAGAAGGGACAAAAU [Anesar] — 6.5-fold lower, 15.6 nM
- AAAUAGUUAGGAUAUACAUGAGGAUCACCCAUGUGGACUGAUGUCGCGUGAUUCAGUGGUAGAAGGGACUCAAA [EX2 Malc#36] — 2.2-fold lower, 47.3 nM
- AUAAAGUGAGGAUAUGCUAAUAAAUAAAUAGACAAAUAAAUGCAGAAGGCACAUGAGGAUCACCCAUGUAAGAA [Ex 4 Tesla 3] — 3.6-fold lower, 28.4 nM
- AACUGACAUGAGGAUCACCCAUGUCAGGAUAUGACAUCGAAAAAAAAAAAAAUCGUUGUCAGAAGGGACAUGAA [Design 77: Sub-opt SB] — 6.1-fold lower, 16.7 nM
- AAGAAGUCAGGAUAUGCCAGAGAUCACGAAAGUGACGAGUAGCAGAAGGGACAUGAGGAUCACCCAUGUAAAGA [Opal 7] — 2.6-fold lower, 39.8 nM
- AAAGAUUGAGGAUAUACAUGAGGAUCACCCAUGUAAAAAAAAAAAAGGGUGGAAGAAAGUAGAAGGCAACAAAA [Ex 3 May 46] — within 1.5-fold, 80.6 nM
- AAGGGACAUGAGGAUCACCCAUGUCAGGAUAUGCGAAAAAAAAAAAUAAAAAAAAAAAGCAGAAGGGACACCAA [Mat - Exclusion 1 - Eli mod - D58] — within 1.5-fold, 104 nM
- ACAGUUAGAGGAUAUACGUGGAAAAAUAAAAAUAAAAAACUACAUGAGGAUCACCCAUGUAGAAGGCUAACUGA [Ex2 Design 196: Random 12E] — 4.1-fold lower, 24.8 nM
- AGGAAACAUGAGGAUCACCCAUGUCAGGAUAUACAAAAGAAAAGAAAAGAAAGAAGAAGUAGAAGGGACACGAA [Double Falcon] — 4.1-fold lower, 25.1 nM
- UCUUGACAUGAGGAUCACCCAUGUCAGGAUAUAGUAGGACAAAUAAAUAAAAGUUCUACUAGAAGGGAUAUGGA [Design 18: G-U+] — 7.1-fold lower, 14.3 nM
- AAAAAACAUGAGGAUCACCCAUGUAAGGAUAUGCUCGUGCGAAAAAGCACAAAAAAGAGCAGAAGGUACAAAAA [66%, Wbt, 40] — 5.4-fold lower, 18.8 nM
- AAAAAACAUGAGGAUCACCCAUGUGAGGAUAUCUGUAUUCAAUCCUCGGAUUGAAUACAGAGAAGGCACAUGAA [Ex1: 611] — 3-fold lower, 34 nM
- AAGAACAGAGGAUAUGCUAAAGAAAUAAAAAUAAAUAAAGAACAUGAGGAUCACCCAUGUAGAAGGCUGAAGAA [Seven kings] — 3.6-fold lower, 28.3 nM
- AAAAAGUCAGGAUAUGUGGAAAAAAUAAAAAAAAUAAAAACACAGAAGGGACAUGAGGAUCACCCAUGUUAAAA [Ex 4 May 18] — 2.2-fold lower, 45.4 nM
- AGCUACUGAGGAUAUACGAACAUGUCAAAAGACGUAAGGGAACAUGAGGAUCACCCAUGUAGAAGGCAGUAGCA [Diamond 49] — 2.3-fold lower, 44.5 nM
- GAAUACCUAGGAUAUACAUGAGGAUCACCCAUGUCAGUAGACUGGGAAAAGUCUCUCAGUAGAAGGAGGACCAG [Anaran] — 1.9-fold higher, 192 nM
- AAAAAACAUGAGGAUCACCCAUGUGAGGAUAUCGUGCAGAAAAAAAAAAAAAACUGCACGAGAAGGCACAUGAA — 2.6-fold lower, 38.9 nM
- AGUGAGUGAGGAUAUGCCUGAAGAAUAAAAGAAAUAACGAGGCAGAAGGCACAUGAGGAUCACCCAUGUACACA [May 65] — 3.2-fold lower, 32.1 nM
- GGUUGGCGAGGAUAUACAUGAGGAUCACCCAUGUGAGAGUAAAAAGUGAGAAAGAAAAGUAGAAGGCGCUGACG [salish99-ex3-46] — 3.8-fold lower, 27.1 nM
- AACAGUACAGGAUAUACAUGAGGAUCACCCAUGUAAAAAUAAAAAGGGAACUCAAAAAGUAGAAGGGUACUGGA [Moding Maslow revisited (73) 14] — within 1.5-fold, 72.6 nM
- AAAAAGUGAGGAUAUCGGAAAAAAAAAAAAAAAAAAAAAAACGAGAAGGCACAUGAGGAUCACCCAUGUAAAAA [all GC all the time + G boost - take 2] — 2.4-fold lower, 42.2 nM
- GAAAAACAUGAGGAUCACCCAUGUCAGGAUAUCGAAAAAAAUAAAAAAGAAAAGAAAACGAGAAGGGACAAAAA [May 12] — 3.6-fold lower, 28.2 nM
- AGCAAGUGAGGAUAUCUGGAUAGGAAAAAGAAAACCUAUCCAGAGAAGGCACAUGAGGAUCACCCAUGUAAAAA [JL cataway mod 7] — 2.6-fold lower, 39.1 nM
- AAAAAGGUAGGAUAUACAUGAGGAUCACCCAUGUCGCGGCGCGCGGACAGCCCGCCCUGUAGAAGGACCAAAAA [Default title] — 2.9-fold lower, 35 nM
- AAAAAACAUGAGGAUCACCCAUGUGAGGAUAUGACUUAAAUAAAGAAAGAAGAAAUAGUCAGAAGGCACAAAUA [Mat - Mod of Nando] — 3.6-fold lower, 28.6 nM
- CCUAUGUCAGGAUAUCAGUAGUAAAAAAAAAAAAUUACUACUGAGAAGGGACAUGAGGAUCACCCAUGUCCAAA [EX4 312: Super Stable 12] — 4-fold lower, 25.6 nM
- UAUACGUGAGGAUAUGCGAAUAACACGUUAGACAAAUAGACGCAGAAGGCACAUGAGGAUCACCCAUGUGAACC [JR_Exc004_Sub316] — 5.6-fold lower, 18.1 nM
- AAAAAACAUGAGGAUCACCCAUGUGAGGAUAUCCAGAAGGGAAUAAAAUAACACGAAAGGAGAAGGCACAAAAA [Ex 1 May 36] — 3-fold lower, 34 nM
- GGUUGGCGAGGAUAUACAUGAGGAUCACCCAUGUGAGAGAAAUAAGUGAGAAAGAAAAGUAGAAGGCGCUGACG [salish99-ex3-43] — within 1.5-fold, 87.7 nM
- GGUUGGCGAGGAUAUACAUGAGGAUCACCCAUGUGAGAGAAAAAAGUGAGAAACAAAAGUAGAAGGCGCUGACG [salish99-ex3-26] — within 1.5-fold, 79.8 nM
- AAAACACAUGAGGAUCACCCAUGUGAGGAUAUGCUAGUGAAAAUAAAAAUAAAACAUAGCAGAAGGCACAAGGA [Amethyst 79] — 2.3-fold lower, 43.7 nM
- AAAAAGUGAGGAUAUACGCUGAGGAGUAGACACAACCUGGCGUAGAAGGCACAUGAGGAUCACCCAUGUCCAAA [EX4 Malc#12] — 4.2-fold lower, 24.3 nM
- AACAGUACAGGAUAUACAUGAGGAUCACCCAUGUAAAGGGAAUAAAACAAAAAUAAAUGUAGAAGGGUACUGGA [Moding Maslow revisited (73) 21] — within 1.5-fold, 69.3 nM
